According to publication PMC12908443 (Nature metabolism, 2021):

How the values were obtained:
[1] = target: T1, Recombinant 6 × His-tagged Acs2 (Acs2–His6) (budding yeast (S. cerevisiae), UniProt P52910 1-683); assay: pull-down
T1 sequence (looked up): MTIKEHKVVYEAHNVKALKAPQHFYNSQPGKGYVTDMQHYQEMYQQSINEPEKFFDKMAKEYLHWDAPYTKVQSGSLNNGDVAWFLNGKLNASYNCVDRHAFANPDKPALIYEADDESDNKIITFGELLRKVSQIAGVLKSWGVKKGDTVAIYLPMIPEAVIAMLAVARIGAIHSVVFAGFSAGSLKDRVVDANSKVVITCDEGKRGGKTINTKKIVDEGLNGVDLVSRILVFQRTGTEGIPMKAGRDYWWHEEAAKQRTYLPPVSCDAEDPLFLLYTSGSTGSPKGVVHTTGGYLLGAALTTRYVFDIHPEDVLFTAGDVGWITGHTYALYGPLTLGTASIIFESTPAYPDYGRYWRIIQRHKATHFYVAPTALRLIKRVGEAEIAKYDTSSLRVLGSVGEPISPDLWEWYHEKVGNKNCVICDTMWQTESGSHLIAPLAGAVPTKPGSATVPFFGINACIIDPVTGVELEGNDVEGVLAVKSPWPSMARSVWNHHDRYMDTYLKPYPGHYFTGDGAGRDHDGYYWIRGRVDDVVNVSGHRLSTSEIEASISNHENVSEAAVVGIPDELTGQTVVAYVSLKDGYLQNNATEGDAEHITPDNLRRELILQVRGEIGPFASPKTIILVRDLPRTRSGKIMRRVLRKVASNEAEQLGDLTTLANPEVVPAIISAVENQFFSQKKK

[2] = target: T2, Glutathione S-transferase (GST)–Acs2 (budding yeast (S. cerevisiae), UniProt P52910 1-683); assay: pull-down
T2 sequence (looked up): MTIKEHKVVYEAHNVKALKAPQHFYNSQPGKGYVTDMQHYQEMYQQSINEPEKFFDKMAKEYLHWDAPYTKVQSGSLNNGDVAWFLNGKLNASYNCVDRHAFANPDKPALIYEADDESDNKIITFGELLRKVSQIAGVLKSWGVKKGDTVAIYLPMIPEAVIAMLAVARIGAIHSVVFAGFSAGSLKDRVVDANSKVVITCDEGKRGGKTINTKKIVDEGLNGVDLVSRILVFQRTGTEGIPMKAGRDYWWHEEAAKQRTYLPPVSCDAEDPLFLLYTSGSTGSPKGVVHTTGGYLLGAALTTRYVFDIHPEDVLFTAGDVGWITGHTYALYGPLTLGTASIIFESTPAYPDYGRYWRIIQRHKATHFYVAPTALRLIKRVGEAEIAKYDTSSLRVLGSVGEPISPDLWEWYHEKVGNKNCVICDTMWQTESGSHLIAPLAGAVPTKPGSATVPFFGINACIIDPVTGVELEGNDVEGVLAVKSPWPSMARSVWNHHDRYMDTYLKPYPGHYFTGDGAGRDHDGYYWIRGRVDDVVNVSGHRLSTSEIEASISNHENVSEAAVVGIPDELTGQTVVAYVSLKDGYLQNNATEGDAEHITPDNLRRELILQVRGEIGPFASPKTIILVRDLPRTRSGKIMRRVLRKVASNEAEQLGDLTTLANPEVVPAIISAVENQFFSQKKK

B1: Recombinant CL7-tagged Sas2 (Sas2–CL7) (enzyme, budding yeast (S. cerevisiae), UniProt P40963 1-338, looked up)
chain: MARSLSQSLTATTQKLKGKKNGGKGKNKPSAKIKKTQKEMLYGILNERNIRQIQFGLNKKFSTWYGSAVYFDPETKRLGCSETKGQLSSVSNSQYWLDTLFVCEYCFKYTDDQTRFVGHVASCPFQYRVPGKIKYKSPEYTIRRVKGSKYQLFCQCLCLFTKLYLDNKSMYFKVDHYEFYIVYETGSTKPMGFFSKDLVSYQQNNLACILIFPPYQRRGLGLLLIEFSYKLSQLEGVISGPEVPLSPFGLIGYLKYWSQILCWHLIEGDLAHYDKVTLEDLSIVTGMRVNDVILTLKHLNCIGENNQIYLQSLNSWLKLHGTKRNWFKLKDEYLLIDD
binding result [1]: binds

B2: Purified recombinant Sas2 (Sas2–His6) (enzyme, budding yeast (S. cerevisiae), UniProt P40963 1-338, looked up)
chain: MARSLSQSLTATTQKLKGKKNGGKGKNKPSAKIKKTQKEMLYGILNERNIRQIQFGLNKKFSTWYGSAVYFDPETKRLGCSETKGQLSSVSNSQYWLDTLFVCEYCFKYTDDQTRFVGHVASCPFQYRVPGKIKYKSPEYTIRRVKGSKYQLFCQCLCLFTKLYLDNKSMYFKVDHYEFYIVYETGSTKPMGFFSKDLVSYQQNNLACILIFPPYQRRGLGLLLIEFSYKLSQLEGVISGPEVPLSPFGLIGYLKYWSQILCWHLIEGDLAHYDKVTLEDLSIVTGMRVNDVILTLKHLNCIGENNQIYLQSLNSWLKLHGTKRNWFKLKDEYLLIDD
binding result [2]: binds
